US11419921B2, “Methods of treating neurological disorders” (EnClear Therapies, Inc., priority 2018, dated 2022)

B1: Clostripain: sulfhydryl protease cleaving at the C-terminus of arginine residues; in Table 23 also immobilized on agarose resin (protein)
chain: NKNQKVTIMYYCDADNNLEGSLLNDIEEMKTGYKDSPNLNLIALVDRSPRYSSDEKVLGEDFSDTRLYKIEHNKANRLDGKNEFPEISTTSKYEANMGDPEVLKKFIDYCKSNYEADKYVLIMANHGGGAREKSNPRLNRAICWDDSNLDKNGEADCLYMGEISDHLTEKQSVDLLAFDACLMGTAEVAYQYRPGNGGFSADTLVASSPVVWGPGFKYDKIFDRIKAGGGTNNEDDLTLGGKEQNFDPATITNEQLGALFVEEQRDSTHANGRYDQHLSFYDLKKAESVKRAIDNLAVNLSNENKKSEIEKLRGSGIHTDLMHYFDEYSEGEWVEYPYFDVYDLCEKINKSENFSSKTKDLASNAMNKLNEMIVYSFGDPSNNFKEGKNGLSIFLPNGDKKYSTYYTSTKIPHWTMQSWYNSIDTVKYGLNPYGKLSWCKDGQDPEINKVGNWFELLDSWFDKTNDVTGGVNHYQW
B2: Trypsin: protease cleaving at the carboxyl side of lysine or arginine; in Table 21 also immobilized in-house on NHS-activated agarose resin (protein, UniProt P00760 24-246, looked up)
Serine protease 1: IVGGYTCGANTVPYQVSLNSGYHFCGGSLINSQWVVSAAHCYKSGIQVRLGEDNINVVEGNEQFISASKSIVHPSYNSNTLNNDIMLIKLKSAASLNSRVASISLPTSCASAGTQCLISGWGNTKSSGTSYPDVLKCLKAPILSDSSCKSAYPGQITSNMFCAGYLEGGKDSCQGDSGGPVVCSGKLQGIVSWGSGCAQKNKPGVYTKVCNYVSWIKQTIASN

Test system: (GR)10
Assay: (GR)10 digestion with immobilized proteases in human cerebrospinal fluid (CSF)
Format: biochemical
Conditions: immobilized enzyme
Protocol: Protease solutions were prepared at 2 mg/mL in sterile PBS with calcium, magnesium and 200 μL ([…]) were applied to 100 μL of pre-washed NHS-activated agarose resin in 0.8 mL centrifuge columns. Reactions were left 1.5 hour at room temperature with end-to-end mixing, after which resins were washed with 12 resin volumes of PBS. Unreacted sites were blocked with 500 μL of 1M ethanolamine for 15 minutes at room temperature and resins were further washed with 24 resin volumes. Resins were stored at 4 degrees in 500 μL of PBS containing 0.05% sodium azide as preservative.
200 μM of (GR)10 were diluted in human cerebrospinal fluid (CSF) and 400 μL were applied to each immobilized proteases. The reaction was incubated 5 minutes at room temperature with end-to-end mixing. Columns were spun down 1 minute at 1,000 Xg to recover digested GR dipeptides. Columns were washed with 12 resin volumes of PBS. The procedure was repeated with 60 minutes digestion time. 100 μL of each samples were transferred to a clean tube, flash-frozen and subsequently used for LC/MS quantification of GR repeats of different lengths. The remaining 300 μL of each samples were flash-frozen and used to assess neuron toxicity.
(GR)10 was digested with exemplary immobilized enzymes as described above in the subsection titled “(GR)10 digestion with immobilized proteases in CSF” of Example 3. Clostripain experiments were conducted with and without DTT activation (no DTT during digestion). The results obtained after 5 and 60 minutes of reaction time are presented in Table 25 and shown in FIG. 5 (commercial and in-house immobilized trypsin), FIG. 6 (immobilized elastase, FIG. 7A (immobilized clostripain without DTT) and FIG. 7 (immobilized clostripain with 2.5 mM DTT).

Molecule	(GR)1 (normalized uM) (5 min reaction) [µM]	(GR)2 (normalized uM) (5 min reaction) [µM]	(GR)3 (normalized uM) (5 min reaction) [µM]	(GR)4 (normalized uM) (5 min reaction) [µM]	(GR)5 (normalized uM) (5 min reaction) [µM]	(GR)6 (normalized uM) (5 min reaction) [µM]	(GR)8 (normalized uM) (5 min reaction) [µM]	(GR)10 (normalized uM) (5 min reaction) [µM]	(GR)1 (normalized uM) (60 min reaction) [µM]	(GR)2 (normalized uM) (60 min reaction) [µM]	(GR)3 (normalized uM) (60 min reaction) [µM]	(GR)4 (normalized uM) (60 min reaction) [µM]	(GR)5 (normalized uM) (60 min reaction) [µM]	(GR)6 (normalized uM) (60 min reaction) [µM]	(GR)8 (normalized uM) (60 min reaction) [µM]	(GR)10 (normalized uM) (60 min reaction) [µM]
B1	11.2	10.0	0.0	0.0	8.5	0.0	0.0	395	106.2	99.2	72.3	84.7	85.5	87	58.4	0
B2	1153.4	9.0	0.0	0.0	0.0	0.0	0.0	0.0	1182.3	0.0	0.0	0.0	0.0	0.0	0.0	0.0
